Laboratory results taken from the Human Domainome abundance scans (Beltran et al. 2025).
± gives the uncertainty stated by the source.

B1: SWI/SNF complex subunit SMARCC1, residues 620 to 663; numbered along this chain, Q92922 (parent)
chain: GREWTEQETLLLLEALEMYKDDWNKVSEHVGSRTQDECILHFLR
B2: SWI/SNF complex subunit SMARCC2, residues 599 to 641; numbered along this chain, Q8TAQ2 (parent)
chain: REWTEQETLLLLEALEMYKDDWNKVSEHVGSRTQDECILHFLR

Variants of: B1
Assay: abundance fitness (aPCA) (normalised: wild type 0, dead -1); higher = more abundant; growth selection in yeast, the domain comes from the species named
Details: Homo sapiens

Row | Variant | abundance fitness
1 | GREWTEQMTLLLLEALEMYKDDWNKVSEHVGSRTQDECILHFLR [E8M] | -0.482 ± 0.21
2 | GREWTEQNTLLLLEALEMYKDDWNKVSEHVGSRTQDECILHFLR [E8N] | -0.584 ± 0.12
3 | GREWTEQQTLLLLEALEMYKDDWNKVSEHVGSRTQDECILHFLR [E8Q] | -0.098 ± 0.1
4 | GREWTEQSTLLLLEALEMYKDDWNKVSEHVGSRTQDECILHFLR [E8S] | -1.01 ± 0.14
5 | GREWTEQGTLLLLEALEMYKDDWNKVSEHVGSRTQDECILHFLR [E8G] | -0.861 ± 0.12
6 | GREWTEQCTLLLLEALEMYKDDWNKVSEHVGSRTQDECILHFLR [E8C] | -0.616 ± 0.16
7 | GREWIEQETLLLLEALEMYKDDWNKVSEHVGSRTQDECILHFLR [T5I] | -0.201 ± 0.11
8 | GREWEEQETLLLLEALEMYKDDWNKVSEHVGSRTQDECILHFLR [T5E] | 0.081 ± 0.1
9 | GREWHEQETLLLLEALEMYKDDWNKVSEHVGSRTQDECILHFLR [T5H] | -0.513 ± 0.14
10 | GREWGEQETLLLLEALEMYKDDWNKVSEHVGSRTQDECILHFLR [T5G] | -0.755 ± 0.11
11 | GREWPEQETLLLLEALEMYKDDWNKVSEHVGSRTQDECILHFLR [T5P] | -0.572 ± 0.16
12 | GREWAEQETLLLLEALEMYKDDWNKVSEHVGSRTQDECILHFLR [T5A] | -0.363 ± 0.12
13 | GREWLEQETLLLLEALEMYKDDWNKVSEHVGSRTQDECILHFLR [T5L] | -0.174 ± 0.065
14 | GREWNEQETLLLLEALEMYKDDWNKVSEHVGSRTQDECILHFLR [T5N] | -0.086 ± 0.12
15 | GREWMEQETLLLLEALEMYKDDWNKVSEHVGSRTQDECILHFLR [T5M] | 0.11 ± 0.07
16 | GREWDEQETLLLLEALEMYKDDWNKVSEHVGSRTQDECILHFLR [T5D] | -0.069 ± 0.13
17 | GREWCEQETLLLLEALEMYKDDWNKVSEHVGSRTQDECILHFLR [T5C] | -0.14 ± 0.14
18 | GREWWEQETLLLLEALEMYKDDWNKVSEHVGSRTQDECILHFLR [T5W] | -0.693 ± 0.24
19 | GREWVEQETLLLLEALEMYKDDWNKVSEHVGSRTQDECILHFLR [T5V] | -0.461 ± 0.091
20 | GREWREQETLLLLEALEMYKDDWNKVSEHVGSRTQDECILHFLR [T5R] | -0.241 ± 0.069
21 | GREWQEQETLLLLEALEMYKDDWNKVSEHVGSRTQDECILHFLR [T5Q] | -0.127 ± 0.11
22 | GREWKEQETLLLLEALEMYKDDWNKVSEHVGSRTQDECILHFLR [T5K] | 0.03 ± 0.099
23 | GREWYEQETLLLLEALEMYKDDWNKVSEHVGSRTQDECILHFLR [T5Y] | -0.116 ± 0.11
24 | GRQWTEQETLLLLEALEMYKDDWNKVSEHVGSRTQDECILHFLR [E3Q] | 0.12 ± 0.12
25 | GRAWTEQETLLLLEALEMYKDDWNKVSEHVGSRTQDECILHFLR [E3A] | -0.04 ± 0.12
26 | GRLWTEQETLLLLEALEMYKDDWNKVSEHVGSRTQDECILHFLR [E3L] | -0.03 ± 0.12

Row | Variant | abundance fitness
27 | GRGWTEQETLLLLEALEMYKDDWNKVSEHVGSRTQDECILHFLR [E3G] | 0.158 ± 0.063
28 | GRYWTEQETLLLLEALEMYKDDWNKVSEHVGSRTQDECILHFLR [E3Y] | 0.229 ± 0.11
29 | GRMWTEQETLLLLEALEMYKDDWNKVSEHVGSRTQDECILHFLR [E3M] | -0.063 ± 0.13
30 | GRWWTEQETLLLLEALEMYKDDWNKVSEHVGSRTQDECILHFLR [E3W] | -0.674 ± 0.12
31 | GRVWTEQETLLLLEALEMYKDDWNKVSEHVGSRTQDECILHFLR [E3V] | 0.312 ± 0.096
32 | GRPWTEQETLLLLEALEMYKDDWNKVSEHVGSRTQDECILHFLR [E3P] | 0.077 ± 0.11
33 | GRFWTEQETLLLLEALEMYKDDWNKVSEHVGSRTQDECILHFLR [E3F] | 0.178 ± 0.14
34 | GRDWTEQETLLLLEALEMYKDDWNKVSEHVGSRTQDECILHFLR [E3D] | 0.311 ± 0.12
35 | GRCWTEQETLLLLEALEMYKDDWNKVSEHVGSRTQDECILHFLR [E3C] | -0.353 ± 0.14
36 | GRSWTEQETLLLLEALEMYKDDWNKVSEHVGSRTQDECILHFLR [E3S] | 0.329 ± 0.084
37 | GVEWTEQETLLLLEALEMYKDDWNKVSEHVGSRTQDECILHFLR [R2V] | 0.086 ± 0.1
38 | GEEWTEQETLLLLEALEMYKDDWNKVSEHVGSRTQDECILHFLR [R2E] | 0.145 ± 0.095
39 | GWEWTEQETLLLLEALEMYKDDWNKVSEHVGSRTQDECILHFLR [R2W] | -0.023 ± 0.13
40 | GIEWTEQETLLLLEALEMYKDDWNKVSEHVGSRTQDECILHFLR [R2I] | 0.415 ± 0.096
41 | GDEWTEQETLLLLEALEMYKDDWNKVSEHVGSRTQDECILHFLR [R2D] | 0.237 ± 0.11
42 | GLEWTEQETLLLLEALEMYKDDWNKVSEHVGSRTQDECILHFLR [R2L] | -0.719 ± 0.11
43 | GNEWTEQETLLLLEALEMYKDDWNKVSEHVGSRTQDECILHFLR [R2N] | 0.288 ± 0.068
44 | GKEWTEQETLLLLEALEMYKDDWNKVSEHVGSRTQDECILHFLR [R2K] | 0.244 ± 0.067
45 | GCEWTEQETLLLLEALEMYKDDWNKVSEHVGSRTQDECILHFLR [R2C] | 0.084 ± 0.14
46 | GYEWTEQETLLLLEALEMYKDDWNKVSEHVGSRTQDECILHFLR [R2Y] | -0.04 ± 0.097
47 | GAEWTEQETLLLLEALEMYKDDWNKVSEHVGSRTQDECILHFLR [R2A] | 0.288 ± 0.12
48 | GTEWTEQETLLLLEALEMYKDDWNKVSEHVGSRTQDECILHFLR [R2T] | 0.174 ± 0.077
49 | GQEWTEQETLLLLEALEMYKDDWNKVSEHVGSRTQDECILHFLR [R2Q] | -0.298 ± 0.35
50 | GFEWTEQETLLLLEALEMYKDDWNKVSEHVGSRTQDECILHFLR [R2F] | 0.253 ± 0.15
51 | GSEWTEQETLLLLEALEMYKDDWNKVSEHVGSRTQDECILHFLR [R2S] | -0.147 ± 0.065
52 | GGEWTEQETLLLLEALEMYKDDWNKVSEHVGSRTQDECILHFLR [R2G] | -0.051 ± 0.11

Variants of: B2
Assay: as above
Details: Homo sapiens

Row | Variant | abundance fitness
53 | REWTEQETLLLLEALEMYKDDWNKVSEHVGSRTQDECILHFQR [L42Q] | 0.351 ± 0.098
54 | REWTEQETLLLLEALEMYKDDWNKVSEHVGSRTQDECILHFRR [L42R] | 0.589 ± 0.057
55 | REWTEQETLLLLEALEMYKDDWNKVSEHVGSRTQDECILHFVR [L42V] | 0.343 ± 0.06
56 | REWTEQETLLLLEALEMYKDDWNKVSEHVGSRTQDECILHFTR [L42T] | 0.519 ± 0.087
57 | REWTEQETLLLLEALEMYKDDWNKVSEHVGSRTQDECILHFSR [L42S] | 0.376 ± 0.057
58 | REWTEQETLLLLEALEMYKDDWNKVSEHVGSRTQDECILHFWR [L42W] | 0.049 ± 0.14
